{
  "source": "paper PMC4419837",
  "about": "“Purification and characterization of DR_2577 (SlpA) a major S-layer protein from Deinococcus radiodurans” (Frontiers in Microbiology, 2015)",
  "proteins": {"B1": {"name": "DR_2577 (SlpA), major S-layer protein from Deinococcus radiodurans (natural protein, UniProt Q9RRB6 23-1167, looked up)", "chain": "APVSAPQVPALTDVPAGHWAKDAIDRLVSRGVILGYPDGTFRGTQNLTRYEAAIIIARLLDQMRDGETPAGMTAEDMTALQNAIQELAADLAALGVRVSDLEANAVSKDDFARLEARIEEVAAAGGEQGATEALQGQIDDLTARVDEYDALRADVDDNASSIAALNDLTVLLNQDILDLQDRVSAVEAAQADFVQRSDFDALGGRVTTVETRVETVNNSLTGRIAALERNAFSVKPSLTIGYSVSRTSRNFDVDRLFPLNADGTVANNAFTSGGIDTDTGAQRRDFGDFGNASDPVVAGAAGLYGFADGVSYTVYFTDGSTATFDGLNPADYKVPTGKVIDTTKGRNGFGFNNLARYKEGSTDIGISLGFDTSGQFSQVTSGTGGSLFSTAGRLQVNQIDLNFGLVTGLPSDAYVDTNGNGKKDDGEATGRGTYLGSGGTAAILRDPAGNVYRPVFFRFKNATTQFSVGNNPVIVTLGQQQKFYFSDYVFDNNYDGRGDGFTVTVDGSNVPVIGAWKPQIKGVYGSRSGLDGTAEAGYGVYYRGVRAQITPVGTLTAGIHYAQEGRDMFGAAQNTTSTPSDVTTYGADLHGKAFGVELHSEYATSRVRPNTANAAVQTSNAFYARVATRKDNLAFDLNTPAAKFGNDTFGVSLYDLNYRKIDAGYNNVAGISEYGYGSYSRTSAQNIAYNPDTGVTAPFANLDRQAYTDANNDGTSDRNADGTVVATNTKIGQMGFGVKAAANLGPVAIGGYYDTSTGANGDNANRMTEAGGSAKVAYSIFSLRGTYNTLDSNRPQIYRDAAGTQIIGDAKVRRYAVQADVTPGLGLFVGAYYRDVNVNGVRSTTDRGLLGRGYLASSFEPGVGNNAYRTGLRCADNNFGTGTRDIDGVGGVLNPAVNLDQSRTATCFTSYGVEAGHAGDNANALVKDLFFRVGYSRVYVPTTATATTGDFSGSVTYGDARYDRKVGVANVRLAGSFSTTNTQLDSRPAGTRGAVGLIVRTDPLENVPFRPQFNGQVGYYTADNRVAAGNYNANATKYGAGVVLNDFLLPQTKIGVRYDGYMAQNRQYTPFDGDGTQGYFSDANNNRRTNLNGVYVEGAYQDLIFSYGTYTLSQKDLNGVEYGSGINNGQPARGQTFKISYKVNF", "notes": "DR_2577 (SlpA), S-layer protein of Deinococcus radiodurans R1; cysteines at residues 896 and 929; Native protein isolated from the bacterium; It infers that the dimers are held by an intermolecular disulfide bond, and only a computer prediction assigns that bond to Cys929"}},
  "key": {"[1]": {"molecular_target": "the molecule itself", "assay": "native gel or EMSA; BN-PAGE, 3-12% gradient gel, 205 V for 5 h at 4°C, about 0.1 ug protein from the main SEC peak; mass estimated against NativeMARK; hexamer"}, "[2]": {"molecular_target": "the molecule itself", "assay": "SDS-PAGE; standard denaturation: Rotiload, not boiled and not treated with tris-2-carboxy-ethylphosphine; polyacrylamide/urea gel; mass estimated against prestained standard; dimer"}},
  "note": "Where “and” joins values, the source holds several entries; their conditions need not be identical. Equal entries are not always repeated.",
  "data": [
    {"protein": "B1", "values": [
      {"measurement": "stoichiometry N", "setting": "[1]", "result": "6.22 and 5.95"},
      {"measurement": "stoichiometry N", "setting": "[2]", "result": "2.25 and 2.17"}
    ]}
  ]
}
